Data published in US20210024601A1 (published 2021).

T1: recombinant human CD25 extracellular domain tagged with 6xHis (human, UniProt P01589 22-240)
T1 chain: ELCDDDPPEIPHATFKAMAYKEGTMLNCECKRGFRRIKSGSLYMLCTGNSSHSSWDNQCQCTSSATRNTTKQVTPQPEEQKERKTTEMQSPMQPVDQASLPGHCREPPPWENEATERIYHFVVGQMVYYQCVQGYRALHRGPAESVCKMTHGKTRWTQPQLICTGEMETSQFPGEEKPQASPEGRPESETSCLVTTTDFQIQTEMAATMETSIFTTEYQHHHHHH


Legend:
[1] = target: T1, recombinant human CD25 extracellular …

Kd [1] | Kd (L72I) | Kd (I114W) | Kd (M104D) | Kd (N71Y) | Kd (V69A) | Binder
0.022 nM |  |  |  |  |  | E68Q (protein) APTSSSTKKTQLQLEHLLLDLQMILNGINNYKNPKLTRMLTFKFYMPKKATELKHLQCLEEELKPLEQALNLAPSKNFHLRPRDLISNINVIVLELKGSETTFMCEYADETATIVEFLNRWITFSQSIISTLT
 | 0.024 nM | 0.038 nM | 0.028 nM | 0.018 nM | 0.023 nM | CD25 (receptor) ELCDDDPPEIPHATFKAMAYKEGTMLNCECKRGFRRIKSGSLYMLCTGNSSHSSWDNQCQCTSSATRNTTKQVTPQPEEQKERKTTEMQSPMQPVDQASLPGHCREPPPWENEATERIYHFVVGQMVYYQCVQGYRALHRGPAESVCKMTHGKTRWTQPQLICTGEMETSQFPGEEKPQASPEGRPESETSCLVTTTDFQIQTEMAATMETSIFTTEYQHHHHHH
